Data taken from IntAct's records for PubMed 18583960.

B1: Serine/threonine-protein kinase TBK1 (Mus musculus), Q9WUN2 (parent)
chain: MQSTSNHLWLLSDILGQGATANVFRGRHKKTGDLYAVKVFNNISFLRPVDVQMREFEVLKKLNHKNIVKLFAIEEETTTRHKVLIMEFCPCGSLYTVLEEPSNAYGLPESEFLIVLRDVVGGMNHLRENGIVHRDIKPGNIMRVIGEDGQSVYKLTDFGAARELEDDEQFVSLYGTEEYLHPDMYERAVLRKDHQKKYGATVDLWSVGVTFYHAATGSLPFRPFEGPRRNKEVMYKIITGKPSGAISGVQKAENGPIDWSGDMPLSCSLSQGLQALLTPVLANILEADQEKCWGFDQFFAETSDVLHRMVIHVFSLQHMTAHKIYIHSYNTAAVFHELVYKQTKIVSSNQELIYEGRRLVLELGRLAQHFPKTTEENPIFVTSREQLNTVGLRYEKISLPKIHPRYDLDGDASMAKAVTGVVCYACRTASTLLLYQELMRKGVRWLVELVKDDYNETVHKKTEVVITLDFCIRNIEKTVKVYEKLMKVNLEAAELGEISDIHTKLLRLSSSQGTIESSLQDISSRLSPGGLLADTWAHQEGTHPRDRNVEKLQVLLNCITEIYYQFKKDKAERRLAYNEEQIHKFDKQKLYYHATKAMSHFSEECVRKYEAFKDKSEEWMRKMLHLRKQLLSLTNQCFDIEEEVSKYQDYTNELQETLPQKMLAASGGVKHAMAPIYPSSNTLVEMTLGMKKLKEEMEGVVKELAENNHILERFGSLTMDGGLRNVDCL
partner: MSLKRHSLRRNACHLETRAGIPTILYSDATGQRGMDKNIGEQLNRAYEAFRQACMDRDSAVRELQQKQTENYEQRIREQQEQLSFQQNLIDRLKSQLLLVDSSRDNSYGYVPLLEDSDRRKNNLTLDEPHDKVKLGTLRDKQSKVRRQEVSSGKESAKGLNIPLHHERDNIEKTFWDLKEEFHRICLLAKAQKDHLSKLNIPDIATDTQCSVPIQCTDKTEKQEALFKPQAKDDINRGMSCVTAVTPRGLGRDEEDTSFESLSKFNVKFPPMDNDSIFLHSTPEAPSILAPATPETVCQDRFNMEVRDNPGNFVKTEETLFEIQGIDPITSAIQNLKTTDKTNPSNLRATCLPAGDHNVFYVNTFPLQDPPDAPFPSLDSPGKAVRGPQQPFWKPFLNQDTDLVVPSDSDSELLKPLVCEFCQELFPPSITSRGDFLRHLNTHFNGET

Variants of: B1
Conditions: with tank_mouse Tank

| Variant | effect of a mutation on the interaction |
| --- | --- |
| S172A | decreasing interaction |
